What was measured:
[1] = target: T1, human CXCR4 (cell-expressed) (human, UniProt P61073 1-352); experiment: cell-based or functional assay
[2] = target: T1, human CXCR4 (cell-expressed); experiment: cell-based or functional assay; remark: listed apart in the source
[3] = target: T2, terbium-labelled SNAP-CXCR4 on HEK-293 cells (Cisbio C1TT1CXCR4) (human, UniProt P61072 1-352 (Pan troglodytes entry), terbium label on the SNAP tag); experiment: TR-FRET (Tag-lite) competition with AlexaFluor 647-CXCL12 on terbium-labelled SNAP-CXCR4 HEK-293 cells
T2 construct: Bought assay-ready cells; also called CXCR4 expressing cells; not shown: SNAP tag
T2 sequence (P61072 whole entry): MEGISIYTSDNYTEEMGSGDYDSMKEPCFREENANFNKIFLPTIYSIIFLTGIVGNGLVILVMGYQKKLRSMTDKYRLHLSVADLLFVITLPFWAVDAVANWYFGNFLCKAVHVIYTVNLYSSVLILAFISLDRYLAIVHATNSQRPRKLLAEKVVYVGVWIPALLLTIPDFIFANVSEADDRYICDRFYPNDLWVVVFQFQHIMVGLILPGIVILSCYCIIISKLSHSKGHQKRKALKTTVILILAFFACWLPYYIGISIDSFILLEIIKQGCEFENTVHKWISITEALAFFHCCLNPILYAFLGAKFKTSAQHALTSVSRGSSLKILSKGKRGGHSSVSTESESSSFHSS

T1 sequence (P61073 whole entry): as the sequence (P61072 whole entry) above

Binder | % Max Inhibition, beta-arrestin reporter assay, Tango CXCR4-bla U2OS cells [1] [%] | IC50, beta-arrestin reporter assay, Tango CXCR4-bla U2OS cells, 30 nM CXCL12 [1] [nM] | % Max Inhibition, cAMP HTRF assay, CXCR4 BacMam HEK-293 cells [2] [%] | IC50, cAMP HTRF assay, CXCR4 BacMam HEK-293 cells, 5.5 nM CXCL12 [2] [nM] | % Max Inhibition [3] [%] | IC50 [3] [nM]
CL-82495 (antibody, human IgG4 S228P, kappa, V domains shown, Tested in human IgG4-PE format) VH: QVQLVESGGGVVQPGRSLRLSCEASGFTLSSYGMHWVRQAPGKGLEWVAVIWNDGSNKYSADSVKGRFTISRDNSKNTLYLQMNRLRAEDTAVYYCARGGGYYGSGSHYRGYYYYGMDVWGQGTTVTVSS VL: DIQMTQSPSSLSASVGDRVTITCRASQGIRNDLGWYQQKPGKAPKRLIYAASSLQSGVPSRFSGSGSGTEFTLTISSLQPEDFATYYCLQHNSYPWTFGQGTKVEIKR | 98.9 | 2.08 | 96 | 27 | 100 | 1.71
CL-148712 (antibody, human IgG4 S228P, kappa, V domains shown) VH: EVQLVESGGDLVQPGGSLRLSCAASGFTFYSYAMNWVRQAPGKGLKWVSGISGSGDITYYADSVKGRFTISRDNSKNTLYLQMHSLRAEDTAVYYCAKGQLERRYYKYYGMDVWGQGTTVTVSS VL: DIQMTQSPSSLSASVGDRVTITCRANQGIRNDLGWYQQKPGKAPKRLIYGASSLKSGVPSRFSGSGSGTEFTLTISSLQPEDFATYYCLQQNSYPLTFGGGTKVEIKR | 98.4 | 0.19 | 105 | 19 |  | 
CL-82580 (antibody, human IgG4 S228P, kappa, V domains shown, Tested in human IgG4-PE format) VH: QVQLVQSGAEVKKPGASVKVSCRASGYTFTNYDINWVRQATGQGLEWMGWMNPNSGNTGYAQKFQGRVTMTRNTSISAAYMELSSLRSEDTAVYYCARGRGYYGSGSRYRGYYYYGMDVWGQGTTVTVSS VL: not shown | 100 | 1.15 | 90 | 46 | 97 | 1.41
CL-82551 (antibody, human IgG4 S228P, kappa, V domains shown, Tested in human IgG4-PE format) VH: QVQLVQSGAEVKKPGASVKVSCKASGYTFTSYDINWVRQATGQGLEWMGWMNPNSGNTGYAQKFQGRVTMTRNTSISTAYMELSSLRSEDTAVYYCARGRGYYGSGSHYRGYYYYGLDVWGQGTTVTVSS VL: DIQMTQSPSTLSASVGDRVTITCRASQSISSWLAWYQQKPGKAPKVLIYKASSLKSGVPSRFSGSGSGTEFTLTVSSLQPDDFATYYCQQYNSYSWTFGQGTKVEIKR | 98.2 | 1.56 | 92 | 39 | 98 | 1.21
CL-82455 (antibody, human IgG4 S228P, kappa, V domains shown) VH: QVQLVESGGGVVQPGRSLRLSCAASGFTFNNYGMHWVRQAPGKGLEWVAVIWNDGSNKYYGDSVKGRFTISRDNSKNTLYLQMNSLRAEDTAVYYCARGGGYYGSGKHYRGYYYNGMGVWGQGTPVTVSS VL: EIVMTQSPATLSVSPGERATLSCRASQSVSSNLAWYQQKPGQAPRLLIYGASTRATGIPARFSGSGSGTEVTLTISSLQSEDFTIYYCQQYNNWPWTFGQGTKVDIKR | 86.8 | 9.12 | 103 | 91 |  | 
